From US20240317847A1 (Bayer, published 2024)
Values belong to the binder of their own block, whether it stands above or below them.

Key:
murine IL-11 = molecular target: T1, murine IL-11 (mouse, UniProt P47873 22-199); experiment: Di-complex ELISA, canine IL11RA-hFc binding to immobilized mIL-11, competition
T1 construct: Invigate recombinant protein; biotinylated when immobilized in the Di-complex ELISA; also called mIL11; mIL-11
T1 sequence: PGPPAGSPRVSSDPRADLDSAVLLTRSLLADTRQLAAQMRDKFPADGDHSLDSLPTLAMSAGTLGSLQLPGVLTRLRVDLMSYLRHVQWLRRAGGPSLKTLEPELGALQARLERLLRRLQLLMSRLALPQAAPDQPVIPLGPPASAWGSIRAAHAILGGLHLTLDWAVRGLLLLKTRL
Method: In the Di-complex ELISA format anti IL-11 antibodies are tested for the ability to interfere with the formation of complexes consisting of immobilized murine IL-11 (Invigate, e.g., lot #C210819-09) or human IL-11 (Invigate, e.g., lot #C121021-19), and murine IL11RA-Fc fusion proteins or canine IL11RA-human-Fc fusion protein (FIG. 17a, b).
Bispecific antibodies were subjected to the experimental assay procedure described in Example 18 and IC50 [M], respectively efficacy (%) were calculated accordingly.

[1] = molecular target: T2, murine IL-11 (Invigate, e.g., lot #C210819-09) (mouse, UniProt P47873 22-199); experiment: SPR, Biacore 8K; antibody captured on anti-human IgG Fc chip, IL-11 analyte 0-50 nM, 1:1 fit
T2 construct: Bought protein; biotinylated where captured on streptavidin plates; also called mIL-11; mIL11
T2 sequence: T1 sequence

[2] = molecular target: T3, human IL-11 (Invigate, e.g., lot #C121021-19) (human, UniProt P20809 22-199); experiment: as above
T3 construct: Bought protein; also called hIL-11; hIL11
T3 sequence: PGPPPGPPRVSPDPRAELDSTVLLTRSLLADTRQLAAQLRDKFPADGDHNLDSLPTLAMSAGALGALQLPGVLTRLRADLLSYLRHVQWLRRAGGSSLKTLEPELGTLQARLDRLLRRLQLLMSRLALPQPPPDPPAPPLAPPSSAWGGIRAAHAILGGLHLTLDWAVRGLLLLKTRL

human IL-11 [3] = molecular target: T4, human IL-11 (human, UniProt P20809 22-199); experiment: Di-complex ELISA, competitor canine IL11RA-Fc on coated IL-11; Di-complex ELISA (blocking of IL-11/IL-11Ra), weak partial inhibition, efficacy 17.4%
T4 construct: Invigate, e.g. lot #C121021-19; biotinylated where coated in the ELISA; also called hIL-11; hIL11
T4 sequence: T3 sequence
Method: The assay is performed using streptavidin coated microtiter plates (Greiner bio-one, #781997). In a first step, 10 nM biotinylated mouse IL-11 (Invigate, Germany, e.g., lot #C210819-09) or human IL-11 (Invigate, Germany, e.g., lot #C121021-19) is coated in 25 μl PBS on the plate at 4° C. overnight. Next day, the plate is washed three times with 50 μl PBST and then blocked with 50 μl SmartBlock (Candor, #113125) for one hour at room temperature (RT). After additional three washes with PBST, 25 μl of a mixture of the murine anti IL-11 antibody and recombinant canine IL11RA-Fc fusion protein (Sino Biological, #70078-D02H) in PBS-T, 10% Smartblock are added simultaneously to the plate and incubated for one hour at RT. […] After three additional washes with PBS-T, 25 μl anti-human-POD (Sigma, #A0170) in PBS-T, 10% Smartblock is added and incubated for 1 hour at RT. After a final three washes with PBS-T, 25 μl AmplexRed (Fisher Scientific, A12222), 1/1000 in PBS, 0,003% H₂O₂, is added as substrate and incubated for 15 min at RT in the dark. Then, the fluorescence is measured with a plate reader at 535/595 nm. […] Efficacy was calculated as [(signal measured at lowest antibody concentration−signal measured at the highest antibody concentration)×100] divided by (signal measured at lowest antibody concentration−signal measured in the absence of IL11Ra). […]

human IL-11 [4] = molecular target: T5, human IL-11 (human, UniProt P20809 22-199); experiment: SPR (Biacore), 25 C, antibody captured via anti-Fc, IL-11 as analyte; SPR at 25 C
T5 construct: Invigate recombinant protein; biotinylated when immobilized in the Di-complex ELISA; also called hIL11; hIL-11
T5 sequence: T3 sequence

IC50 (murine IL-11): 0.0039 µM
B1: TPP-29603 (bispecific antibody, IgG1)
chain 1: QVQLVESGGGVVQPGRSLRLSCAASGFTFSHYDMHWVRQAPGKGLEWVAVISYHGSVKFYADSVKGRFTISRDNSKNTLYLQMNSLRAEDTAVYYCARTPGFHFDYWGQGTLVTVSSGGGGSGGGGSGGGGSQSVLTQPPSASGTPGQRVTISCSGSSSNIGSNYVSWYQQLPGTAPKLLIYYDDLRPSGVPDRFSGSKSGTSASLAISGLRSEDEADYYCSAWDDSLSGVVFGGGTKLTVLGGGGSGGGGSGGGGSGVECPPCPAPPVAGPSVFIFPPKPKDVLTITLTPKVTCVVVDISKDDPEVQFSWFVDDVEVHTAQTQPREEQFNSTFRSVSELPIMHQDWLNGKEFKCRVNSAAFPAPIEKTISKTKGRPKAPQVYTIPPCKEQMAKDKVSLWCMITDFFPEDITVEWQWNGQPAENYKNTQPIMDTDGSYFVYSKLNVQKSNWEAGNTFTCSVLHEGLHNHHTEKSLSHSPGK
chain 2: EVQLLESGGGLVQPGGSLRLSCAASGFTFSSYGMHWVRQAPGKGLEWVAVISYDGSYKYYADSVKGRFTISRDNSKNTLYLQMNSLRAEDTAVYYCAAGVPDYWGQGTLVTVSSGGGGSGGGGSGGGGSQSVLTQPPSASGTPGQRVTISCSGSSSNIGSDYDVHWYQQLPGTAPKLLIYSNEERPSGVPDRFSGSKSGTSASLAISGLRSEDEADYYCSAWDSSLSGPVFGGGTKLTVLGGGGSGGGGSGGGGSGVECPPCPAPPVAGPSVFIFPPKPKDVLTITLTPKVTCVVVDISKDDPEVQFSWFVDDVEVHTAQTQPREEQFNSTFRSVSELPIMHQDWLNGKEFKCRVNSAAFPAPIEKTISKTKGRPKAPQVCTIPPPKEQMAKDKVSLSCAITDFFPEDITVEWQWNGQPAENYKNTQPIMDTDGSYFVVSKLNVQKSNWEAGNTFTCSVLHEGLHNHHTEKSLSHSPGK
notes: scFv-kih-mIgG1; bispecific comprising CDRs of TPP-29528 and TPP-29519

Kd [1]: 0.012 µM
Kd [2]: 0.0052 µM
B2: TPP-18087 (antibody, mouse IgG1, V domains shown)
VH: EVQLLESGGGLVQPGGSLRLSCAASGFTFSHYDMNWLRQAPGKGLEWVGVISYDGSNKFYADFVKGRFTISRDNSKNTLYLQMNSLRAEDTAVYYCARTPGSHFDYWGQGTLVTVSS
VL: QSVLTQPPSASGTPGQRVTISCSGSSSNIGNNAVNWYQQLPGTAPKLLIYYDDLLPSGVPDRFSGSKSGTSASLAISGLRSEDEADYYCSAWDDSLNGVVFGGGTKLTVLG
notes: mIgG1, Lambda

IC50 (human IL-11 [3]): 0.012 µM
B3: TPP-18068 (antibody, mouse IgG1)
heavy: EVQLLESGGGLVQPGGSLRLSCAASGFTFSSYGMHWVRQAPGKGLEWVSVISYDGSYKYYADSVKGRFTISRDNSKNTLYLQMNSLRAEDTAVYYCAAGVPDYWGQGTLVTVSSAKTTPPSVYPLAPGSAAQTNSMVTLGCLVKGYFPEPVTVTWNSGSLSSGVHTFPAVLQSDLYTLSSSVTVPSSTWPSETVTCNVAHPASSTKVDKKIVPRDCGCKPCICTVPEVSSVFIFPPKPKDVLTITLTPKVTCVVVDISKDDPEVQFSWFVDDVEVHTAQTQPREEQFNSTFRSVSELPIMHQDWLNGKEFKCRVNSAAFPAPIEKTISKTKGRPKAPQVYTIPPPKEQMAKDKVSLTCMITDFFPEDITVEWQWNGQPAENYKNTQPIMDTDGSYFVYSKLNVQKSNWEAGNTFTCSVLHEGLHNHHTEKSLSHSPGK
light: QSVLTQPPSASGTPGQRVTISCTGSSSNIGAGYDVHWYQQLPGTAPKLLIYSNNERPSGVPDRFSGSKSGTSASLAISGLRSEDEADYYCAAWDDSLNGPVFGGGTKLTVLGQPKSSPSVTLFPPSSEELETNKATLVCTITDFYPGVVTVDWKVDGTPVTQGMETTQPSKQSNNKYMASSYLTLTARAWERHSSYSCQVTHEGHTVEKSLSRADCS
notes: mIgG1, Lambda

Kd (human IL-11 [4]): 0.025 µM
B4: TPP-18068 (antibody, mouse IgG1)
heavy: B3 heavy
light: B3 light
notes: mIgG1, Lambda
